Assay results from article PMC6155126.

Legend:
PAXX (cleaved) = PAXX (cleaved) (Homo sapiens, UniProt Q9BUH6 1-204); test: EMSA; 0.5 µM PAXX; EMSA: 50 mM Tris-HCl pH 7.5, 100 mM KCl, 2.5 mM MgCl2, 1 mM DTT, 4% glycerol, 0.05% Triton X-100, 0.1 mg/ml BSA, 10-20 nM DNA, 30 min at 25 °C; 4-5% native PAGE, 0.5x TBE, 4 °C; settings: protein: recombinant; tags: GST tag cleaved (PreScission); chain copies: 2; label: 5' IRDye 700 on one strand; 5-nt gap
Pol λ WT = Pol λ WT (Homo sapiens, UniProt Q9UGP5 1-575); test: EMSA; 40 or 200 nM Pol λ; EMSA: 50 mM Tris-HCl pH 7.5, 100 mM KCl, 2.5 mM MgCl2, 1 mM DTT, 4% glycerol, 0.05% Triton X-100, 0.1 mg/ml BSA, 10-20 nM DNA, 30 min at 25 °C; 4-5% native PAGE, 0.5x TBE, 4 °C; settings: protein: recombinant; tags: FLAG; label: 5' IRDye 700 on one strand; 5-nt gap

B1: 5nt-gapped dsDNA 30-mer (dsDNA)
DNA 1: ACTGGCCGTCGTTCTATTGTACTCACTGTGATC
DNA 2: GATCACAGTGAGTAC
DNA 3: AACGACGGCCAGT
B1: no binding (PAXX (cleaved)); binds (Pol λ WT).
